Target: NM fibers (amyloid fibers of NM; also used sonicated as seed) (Saccharomyces cerevisiae) (UniProt P05453)
Test: seeded fiber elongation, sedimentation and acrylodan wavelength shift assays, Lineweaver-Burk plot

Chain of NM fibers (amyloid fibers of NM; also used sonicated as seed) (Saccharomyces cerevisiae) (P05453 1-253): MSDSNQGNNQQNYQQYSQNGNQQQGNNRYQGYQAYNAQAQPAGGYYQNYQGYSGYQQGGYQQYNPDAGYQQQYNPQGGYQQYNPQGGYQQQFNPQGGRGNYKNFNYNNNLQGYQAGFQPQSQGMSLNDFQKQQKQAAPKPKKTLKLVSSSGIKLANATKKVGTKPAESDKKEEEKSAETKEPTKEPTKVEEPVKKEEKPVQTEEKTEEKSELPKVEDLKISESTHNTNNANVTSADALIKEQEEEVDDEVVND

NM^T158C-acrylodan (soluble) (from UniProt P05453 1-253) (other; other documents disagree on this pair)
Km: 0.12 µM
kconf/Km (conformational conversion efficiency): 42000 M⁻¹ s⁻¹

— patent publication US20060105320A1
